In test [1] the target is GLP-1 receptor.
In test [2] the target is GLP-1 receptor. The source holds these as a separate data set.
Test [3] deals with GLP-1 receptor. The source holds these as a separate data set.

Where only a bound is given, the exact number is not on record here.

N-acetyl-GLP-1 (peptide), sequence (peptide): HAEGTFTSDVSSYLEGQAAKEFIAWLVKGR

In the test with GLP-1 receptor [1], Exenatide (peptide) had an EC50 (pM), agonist potency, CRE-luciferase reporter of 1.1 pM. In turn, N-acetyl-GLP-1 (peptide) gave an agonist potency, CRE-luciferase reporter with GLP-1 receptor [2] of 50 fold.

Consider dipeptidyl protease 4 (enzyme), for which the degradation by DPP4, read as potency loss on human GLP-2R with GLP-2 is over 97%. For the same substance, the degradation by DPP4, read as potency loss in the GLP-1R agonist assay with Liraglutide is over 98%; with GLP-1 (7-36) amide, over 99.8%. The substance “para-trifluoromethyldiazirine benzyl derivative of GLP-1 (peptide)” gave an agonist potency and efficacy with GLP-1 receptor [3] of 123 fold.

Values taken from patent US20190055279A1, “NOVEL POLYPEPTIDES WITH IMPROVED PROTEOLYTIC STABILITY, AND METHODS OF PREPARING AND USING SAME” (TUFTS UNIVERSITY, priority 2015, published 2019).
